Measurements taken from article PMC8413711 (2021).
Residue numbers refer to the chain shown, from its start.

B1: BD-604 (antibody, V domains shown)
VH: EVQLVESGGGLIQPGGSLRLSCAASGIIVSSNYMTWVRQAPGKGLEWVSVIYSGGSTFYADSVKGRFTISRDNSKNTLYLQMSSLRAEDTAVYYCARDLGPYGMDVWGQGTTVTVSS
VL: DIQLTQSPSFLSASVGDRVTITCRASQGISSDLAWYQQKPGKAPNLLIYAASTLQSGVPSRFSGSGSGTEFTLTISSLQPEDFATYYCQQLNSDLYTFGQGTKLEIK
B2: BD-508 (antibody, V domains shown)
VH: B1 VH with I12V, I27F, D72H, Y79F, S83N, L99A, G100Q, P101N
VL: DIQMTQSPSSLSASVGDRVTITCRASQSISSYLNWYQQKPGKAPKLLIFAASSLQTGAPSRFSGSGSGTDFTLTISSLQPEDFATYYCQQSYSTPPYTFGQGTKLEIK
B3: BD-515 (antibody, V domains shown)
VH: EVQLVESGGGLVQPGGSLRLSCAASEFIVSRNYMSWVRQAPGKGLEWVSVIYSGGSTFYADSVKGRFTISRDNSKNTLYLQMNSLRAEDTGVYYCARDRGLVSDYWGQGTLVTVSS
VL: DIQMTQSPSSLSASVGDRVTITCQASQDINKYLNWYQQKPGKAPKLLIFDASHLETGVPSRFSASGSGTDFTFTISSLQPEDIATYYCHQYDNLPRTFGQGTRLEIK
B4: BD-503 (antibody, V domains shown)
VH: EVQLVESGGGLIQPGGSLRLSCAASGLIVSSNYMSWVRQAPGKGLEWVSVLYAGGSTDYAGSVKGRFTISRDNSKNTLYLQMNSLRAEDTAVYYCARDAAVYGIDVWGQGTTVTVSS
VL: not shown
B5: BD-623 (antibody, V domains shown)
VH: EVQLVESGGGLVQPGGSLRLSCAASGFTVSSNYMSWVRQAPGKGLEWVSIIYSGGSTYYADSVKGRFTISRDNSKNTLYLQMNSLRAEDTAVYYCARDYAGRVWGQGTLVTVSS
VL: QSALTQPASVSGSPGQSITISCTGTSSDVGSYNLVSWYQQRPGKAPKLILYEVTKRPSGVSNRFSGSKSGNTASLAISGLQAEDEADYYCCSYAGSSTWVFGGGTKLTVL

The binders below were run against T1, SARS-CoV-2 RBD (SARS-CoV-2, UniProt P0DTC2 319-541) (assay: SPR).

Binder	Kd
B1	0.012 nM
B2	1.3 nM
B3	0.561 nM
B4	0.204 nM
B5	0.12 nM

Target: T1, SARS-CoV-2 RBD
Assay: SPR
Remark: another data set of the same source

Binder	koff
B2	0.000514 s⁻¹
B3	0.000389 s⁻¹
